Source: patent US20210355166A1, “[…] METHODS OF USE THEREOF” (priority 2018, published 2021)

What was measured:
[1] = target: human κ-opioid receptor (hKOPr), human recombinant KOPr expressed in CHO cells (human) (UniProt P41145); test: competition with [3H]U69593 (2 nM), human recombinant KOPr expressed in CHO cells
[2] = target: human δ-opioid receptor (hDOPr), human recombinant DOPr expressed in CHO cells (human) (UniProt P41143); test: competition with [3H]DADLE (0.5 nM), human recombinant DOPr expressed in CHO cells

Ki [1]: 770 nM
Ki [2]: 190 nM
Substance: bilorphin (H-[Dmt]-vVf-NH2; 2,6-dimethyl-L-tyrosine-D-Val-L-Val-D-Phe-NH2) (peptide)
